Columns and labels:
O=Cc1ccc(CO)o1 = tested on: T1, O=Cc1ccc(CO)o1; assay: purified protein; type: biochemical, Methylovorus sp. MP688; conditions: 50 mM phosphate pH 8.0, 25 °C, O2 as electron acceptor
T1 construct: full-length, N-terminal His6x-SUMO fusion kept, recombinant from E. coli (pET SUMO / pBAD SUMO), FAD-containing

purified protein = substrate: O=Cc1ccc(CO)o1; assay: purified protein; conditions: 50 mM phosphate pH 8.0, 25 °C, O2 as electron acceptor

Molecule	Km (O=Cc1ccc(CO)o1) [µM]	kcat (O=Cc1ccc(CO)o1) [s⁻¹]	kcat/Km (O=Cc1ccc(CO)o1) [M⁻¹ s⁻¹]	Km (purified protein) [µM]	kcat (purified protein) [s⁻¹]	kcat/Km (purified protein) [M⁻¹ s⁻¹]
HMFO (HMF oxidase) (Methylovorus sp. MP688; A419Y/A435E/G356H/H74Y/I73V/T414K/V367L)	630	11.8	18700			
HMFO (HMF oxidase) (Methylovorus sp. MP688) (protein) MTDTIFDYVIVGGGTAGSVLANRLSARPENRVLLIEAGIDTPENNIPPEIHDGLRPWLPRLSGDKFFWPNLTIHRAAEHPGITREPQFYEQGRLLGGGSSVNMVVSNRGLPRDYDEWQALGADGWDWQGVLPYFIKTERDADYGDDPLHGNAGPIPIGRVDSRHWSDFTVAATQALEAAGLPNIHDQNARFDDGYFPPAFTLKGEERFSAARGYLDASVRVRPNLSLWTESRVLKLLTTGNAITGVSVLRGRETLQVQAREVILTAGALQSPAILLRTGIGPAADLHALGIPVLADRPGVGRNLWEHSSIGVVAPLTEQARADASTGKAGSRHQLGIRASSGVDPATPSDLFLHIGADPVSGLASAVFWVNKPSSTGWLKLKDADPFSYPDVDFNLLSDPRDLGRLKAGLRLITHYFAAPSLAKYGLALALSRFAAPQPGGPLLNDLLQDEAALERYLRTNVGGVWHASGTARIGRADDSQAVVDKAGRVYGVTGLRVADASIMPTVPTANTNLPTLMLAEKIADAILTQA				1520	13.7	9030
